This passage reports self-cleavage results from the RNAGym collection of RNA variant scans (doi:10.1093/nar/gkz1192).

The chains are these.
B1: CPEB3 Ribozyme (parent)
chain: UAACAGGGGGCCACAGCAGAAGCGUUCACGUCGCAGCCCCUGUCAGAUUCUGGUGAAUCUGCGAAUUCUGCUGUAUAUCUC

Variants of B1 are the subject of the data set. Put plainly: self-cleavage, relative activity (ratio to wild type); higher = more cleavage; in vitro, sequencing. An outline of the steps:
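CPEB3 self-cleaving ribozyme mutant libraries were made by rounds of error-prone PCR, barcoded, and transcribed in vitro with T7 RNA polymerase for 5 hours at 37°C. Cleavage occurred during transcription and a 15 min DNase I step before EDTA stop. RNAs were reverse transcribed with template switching and Illumina-sequenced, with DNA sequencing mapping barcodes to variants. Relative activity is the variant's cleaved/total read fraction divided by wild type's (minimum 5 reads), averaged across three batches.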
Consider UGACAGGGGGCCACAGCAGAAGCGUUCACGUCGCAGCCCCUGUCAGAUUCUGGUGAAUCUGAGAAUUCUGCUGUAUAUCUC, for which the self-cleavage amounted to 0.15.

In the case of UAACAGGGGGCCACAGCAGAUGCGUUCACGUCGCAGCCCCUGUCAGUUUCUGGUGAAUCUGCGAAUUCUGCUGUAUAUCUC, the self-cleavage stood at 0.1.

Turning to UAACAGGGGGCCACAGCAGAAGCGUUCACGUCGCAGCCCCCGUCAGUUUCUGGUGAAUCUGCGAAUUCUGCUGUAUAUCUC, the self-cleavage amounted to 0.61.

As to UAACAGGGGGCCACAGCAAAAGCGUUCACGUCGCAGCCCCUGUCAGAUUCUGGUGAAUCUGCGGAUUCUGCUGUAUAUCUC, the self-cleavage was 0.21.

As for UAACAGGGGGCCACAGCAGAAGCGUUCACGUCGCAGCCCCUGUCAGUUUCUGGUGAAUCUGCGAAUUCUGCUGGAUAUCUC, the self-cleavage was 0.96.

As to UAACAGGGGGCCACAGCAGAAGCGUUCACGUCACAGCCCCUGGCAGAUUCUGGUGAAUCUGCGAAUUCUGCUGUAUAUCUC, the self-cleavage is 0.34.

On to UAACAGGGGGCCACAGCAGAAGCGUUCACGUCGCAGCCCUUGUCAGAUUCUGGUGAAUCUGCGAAUUCUGCUGUAUAUCCC, for which the self-cleavage was found to be 0.76.

UAACAGAGGGCCACAGCAGAAGCGUUCACGUCGCAGCCCCUGUCAUAUUCUGGUGAAUCUGCGAAUUCUGCUGUAUAUCUC: the self-cleavage stood at 0.39.

Turning to UAACAGGGGGCCACAGCAGAAGCGUUCACGUCGCAGCCCCUGUCAGAUUCUCGUGAAUCUGCGAAUUCUGCUGUAUAUCCC, the self-cleavage was determined as 1.2.

As for UAACAGGGGGCCACAGCAGAAGCGUUGACGUCGCAGCCCCUGUCAGAUUCUGGCGAAUCUGCGAAUUCUGCUGUAUAUCUC, the self-cleavage was 0.3.

In the case of UAACAGGGGGCCACAGCAGAAGCGUUCACGUCGCGGCCCCUGUCAGAUUCUGGUGAAUCUGCGAAUUCUGCUGUAUAUCCC, the self-cleavage came out at 1.3.

As for UAACAGGGGGCCACAGCUGAAGCGUUCACGUCGCGGCCCCUGUCAGAUUCUGGUGAAUCUGCGAAUUCUGCUGUAUAUCUC, the self-cleavage was 0.7.

In the case of UAACAGGGGGCCACAGCAGAAGCGUUCACGUCGCAGCCCUUGUCAGAUUCUGGUGAAUCUGCGAAUUCUGAUGUAUAUCUC, the self-cleavage stood at 0.17.

UAACAGGGGGCCACAGCAGAAGCGUUCACGUCGCAGCCCCUGUCAGAUUCUUGCGAAUCUGCGAAUUCUGCUGUAUAUCUC: the self-cleavage stood at 1.14.

For UAACAGGGGGCCACAGCAGAAGCGUUCACGUCGCAGCCCCUGUCAGAAUCUGGUGAAUCUGCGAAUUCUGCAGUAUAUCUC, the self-cleavage turned out to be 0.22.

UAACAGGGGACCACAGCAGUAGCGUUCACGUCGCAGCCCCUGUCAGAUUCUGGUGAAUCUGCGAAUUCUGCUGUAUAUCUC: the self-cleavage worked out at 0.23.

With UAACAGGGGGCCACAGCAGAAGCGUUCACGACGUAGCCCCUGUCAGAUUCUGGUGAAUCUGCGAAUUCUGCUGUAUAUCUC, the self-cleavage stood at 0.23.

With UAACAGGGGGCCACAGCAGAAGCGUUCACGUAGCAGCCCCUGUCAGAUUCUGGUGAAUCUGCGAAUUCUGCUGUUUAUCUC, the self-cleavage was 0.16.

Take UAACAGGGGGCCACAGCAGAAGCGUUUACGUCGCAGCCCCUGUCGGAUUCUGGUGAAUCUGCGAAUUCUGCUGUAUAUCUC: the self-cleavage worked out at 0.17.

Take UAACAGGGGGCCACAGCAGAAGCGUUCACGUCGCAGCCCCUGUCAGAUUCUGGUGAAUCUGCGAAUUCUGCUGUACAUCUA: the self-cleavage stood at 1.24.

With UAACAGGGGGCCACAGCAGAAGCGUUCACGUCGCAGCCCCCGUUAGAUUCUGGUGAAUCUGCGAAUUCUGCUGUAUAUCUC, the self-cleavage stood at 0.53.

Regarding UAACAGGGGGCCACAGCAGAAGCGUUCACGCCGCAGCCCCUGUCAGAUUCUGGUGAAUCUGCGAAUUCUGCUGUAUAUCAC, the self-cleavage came to 1.01.

With UAACAGGGGGCCACAGCAGAAGCGUUCACGUCGCAGCCCCUGUCAGAUUCUGGUGAAUCUGAGAAUUCUGCUGUAUAACUC, the self-cleavage is 0.16.

In the case of UAACAGGGGGCCACAGCGGAAGCCUUCACGUCGCAGCCCCUGUCAGAUUCUGGUGAAUCUGCGAAUUCUGCUGUAUAUCUC, the self-cleavage came to 0.28.

As for UAACAGGGGGCCACAGCACAAGCGUUCACGUCGCAGCCCCCGUCAGAUUCUGGUGAAUCUGCGAAUUCUGCUGUAUAUCUC, the self-cleavage is 0.18.

Turning to UAACAGGGGGCCACAGCAGAAGCGUCCACGUCGCAGCCCCUUUCAGAUUCUGGUGAAUCUGCGAAUUCUGCUGUAUAUCUC, the self-cleavage amounted to 0.25.

As for UAACAGGGGGCCAUAGCAGAAGCGUUCACGUCGCAGCCCCUGGCAGAUUCUGGUGAAUCUGCGAAUUCUGCUGUAUAUCUC, the self-cleavage came out at 0.27.

Consider UAACAGGGGGCCACAGCACUAGCGUUCACGUCGCAGCCCCUGUCAGAUUCUGGUGAAUCUGCGAAUUCUGCUGUAUAUCUC, for which the self-cleavage was 0.4.

Take UAACAGGGGGCCACAGCAGAAGCCUUCACGUCGCAGCCCCUGCCAGAUUCUGGUGAAUCUGCGAAUUCUGCUGUAUAUCUC: the self-cleavage was determined as 0.18.

Take UAACUGGGGGCCACAGGAGAAGCGUUCACGUCGCAGCCCCUGUCAGAUUCUGGUGAAUCUGCGAAUUCUGCUGUAUAUCUC: the self-cleavage came to 0.26.

Turning to UAACAGGGGGCCACAGCAGAAGCGUUCUCGUCGCAUCCCCUGUCAGAUUCUGGUGAAUCUGCGAAUUCUGCUGUAUAUCUC, the self-cleavage came to 0.41.

On to UAACAGGGGGCCACAGCAGAAGCGUUCACGUCGCAGCCCCUGUCAGAGUCUGGUGAAUCUGCGAAUACUGCUGUAUAUCUC, for which the self-cleavage worked out at 0.38.

For UAACAGGGGGACACAGCAGAAGCGUUCACGUCGCAGCCCCUGUCAGAUUCUGGUGGAUCUGCGAAUUCUGCUGUAUAUCUC, the self-cleavage amounted to 0.34.

With UAACAGGGAGCCACAGCAGAAGCGUUCACGUCGCAGCCCCUGUCAGAUUCUGGUGAAUCUGCGAAUUCUGCUGUAUAUUUC, the self-cleavage was 0.16.

Take UAACAGGGGGCCAUAGCAGAAGCGUUCUCGUCGCAGCCCCUGUCAGAUUCUGGUGAAUCUGCGAAUUCUGCUGUAUAUCUC: the self-cleavage was found to be 1.21.

Regarding UAACGGGGGGCCACAGCAGAAGCGUUCACGUCGCAGCCCCUGUCAGAUUCUAGUGAAUCUGCGAAUUCUGCUGUAUAUCUC, the self-cleavage came to 1.

For UAACAGGGGGCCACAGCAGAAGUGUUCACGUCGCAGCCCCUGUCAGAUUCUGGUGAGUCUGCGAAUUCUGCUGUAUAUCUC, the self-cleavage is 0.31.

With UAACAGGGGGCCACAGCGGAAGCGUUCACGUCGCAGCCCCUGUCAGAUUCUGGUGAAUCUGCGAAUUCUGCUGUAUUUCUC, the self-cleavage came out at 0.78.

Consider UAACAGGGGGCCACAGCAGAAGCGUUCACGUCGCAGCCCCUGUCAGAUUCAGGUGAAUCUGCGAAUUCUGCGGUAUAUCUC, for which the self-cleavage was 0.91.

UAACAGGGGGCCACAGCAGAAGCGUUCACGUCGCAGCCCCUGUCCGAUUCUGGCGAAUCUGCGAAUUCUGCUGUAUAUCUC: the self-cleavage worked out at 0.4.

Consider UAACAGGGGGCCACAGCAGAAGCGUUUACGUCGCAGCCCCAGUCAGAUUCUGGUGAAUCUGCGAAUUCUGCUGUAUAUCUC, for which the self-cleavage came out at 0.2.

Consider UAACAGGGGGCCACAGCAGAAGCGUUCACGUCGCAGCCCCUGUCAGAUUCUGGUGAAUCUGCGGUUUCUGCUGUAUAUCUC, for which the self-cleavage turned out to be 0.19.

For UAACAGGGGGCCAUAGCAGAAACGUUCACGUCGCAGCCCCUGUCAGAUUCUGGUGAAUCUGCGAAUUCUGCUGUAUAUCUC, the self-cleavage was determined as 0.41.

UAACAGGGGGCCACAGCAGAAGCGUUCACGUCGCAGCCCCAGUCAGCUUCUGGUGAAUCUGCGAAUUCUGCUGUAUAUCUC: the self-cleavage amounted to 0.18.

For the variant UAACAGGGGGCCACAGCAGAAGCGUUCACGUCGCAGCCCCUGUCAGAUUCUGAUGAAUCUGCGAAUUCUGCGGUAUAUCUC, the self-cleavage stood at 1.22.

With UAACAGGGGGCCACAGCAGAAGCGUUCACGUCGCUGCCCCUGUCAGAUUCUAGUGAAUCUGCGAAUUCUGCUGUAUAUCUC, the self-cleavage came out at 0.54.

UAACAGGGGGCCACAGCAGAAGCGUUCACGUCGCAGCCCCUGUCAGAUUCUGGUCAAUCUGCGAAUUCUGCUGUAUACCUC: the self-cleavage was found to be 0.94.

Turning to UAACAGGGGGCCACAGCAGAAGCGUCCACGUCGCAGCCCCUGUCAGAUUCUGGUGAAUCUGCGAAUUCUGCUGUAUCUCUC, the self-cleavage amounted to 0.45.

UAACAAGGGGCCACAGCAGAAGCGUUCACGUCGCAGCCCCUGUCAGAUUCUGGUGAAUCUGCGAAUUCUGCUGUACAUCUC: the self-cleavage amounted to 0.27.

Consider UAACAGGGGGCCACAGCAGAAGCGUUCACGUCGCAGCCCCUGUCAGUUUCUGGUGAAUCUGCGAAUUCUGCUGUAUAUCUC, for which the self-cleavage was 0.62.

Regarding UAUCAGGGGGCCACAGCAGAAGCGUUCACGUCGCAGCCCCUGUCAGAUUCUGGUGAAUCUGCGAAUUCUGCUGUAUAUUUC, the self-cleavage was found to be 1.21.

For UAACAAGGGGCCACAGCAAAAGCGUUCACGUCGCAGCCCCUGUCAGAUUCUGGUGAAUCUGCGAAUUCUGCUGUAUAUCUC, the self-cleavage was 0.26.

As for UAACAGGGGGCCACAGCAGAAGCGUUCACGUCGCAGCCCCUGUCAGAUCCUGGUGAAUCUGCGAAUUCUGCAGUAUAUCUC, the self-cleavage is 0.26.

As for UAACAGGGGGCCACAGCAGAAGCGUUCACGUCGCAGCCCCUGUCAGAUUCUGGUGAAUCCGCGAAUUCUGCUGUAUAUCUA, the self-cleavage came to 0.37.

As for UAACAGGGGGCCACGGCAGAAGCGUUCACGUCGCAGCCCCUGUCAGAUUCUGGUGAAUCUGCGAAUUCUGCUGUAUAUGUC, the self-cleavage came out at 1.26.

Consider UAACAGGGGGCCACAGCAGAAGCGAUCACGUCGCAGCCCCUGUCAGAUUCUGGUGAAUCUGCGAAUCCUGCUGUAUAUCUC, for which the self-cleavage came to 0.19.

Turning to UAACAGGGGGCCACAGCAGAAGCGCUCACGUCGCAGCCCCUGUCAGAUUCUGGUGAAUCUGCGAAUUCUGCUGUAUCUCUC, the self-cleavage was determined as 0.3.

Regarding UAACAGGGGGCCACAGCAUAAGCGUUCACGUCGCAGCCCCUGUCAGAUUCUGGUGAAUCUGCGAAUUCUGCUAUAUAUCUC, the self-cleavage was found to be 0.51.

As to UAACAGGGGGCCUCAGCGGAAGCGUUCACGUCGCAGCCCCUGUCAGAUUCUGGUGAAUCUGCGAAUUCUGCUGUAUAUCUC, the self-cleavage is 0.87.

UAACAGGGGGCCACAGCAGAAGCGUUCACGUCGCAGCCCCUCUCAGAUUCUGGUGAAUCCGCGAAUUCUGCUGUAUAUCUC: the self-cleavage is 0.24.

On to UAACAGGGGGCCACAGCAGAAGCGUUCACGUCGCAGCCCCUAUCGGAUUCUGGUGAAUCUGCGAAUUCUGCUGUAUAUCUC, for which the self-cleavage worked out at 0.3.

As to UAACAGGGGGCCACAGCAGAAGCGUUCACGUCGCAGCCCCCGUCAGAUUCUGGUGAAUCUGGGAAUUCUGCUGUAUAUCUC, the self-cleavage came to 0.15.

As to UAACAGGGGGCCACAGCAGAAUCGUUCGCGUCGCAGCCCCUGUCAGAUUCUGGUGAAUCUGCGAAUUCUGCUGUAUAUCUC, the self-cleavage came to 0.17.

On to UAACAGGGGGCCACAACAGAAGCGUUCACGUCGCAGCCCCUGUCAGAUUCUGGUGAGUCUGCGAAUUCUGCUGUAUAUCUC, for which the self-cleavage was 0.27.

As to UAACAGGGGGCCACAGCAGAAGCGUUCACGUCGCAGCCCCUGUCAGGAUCUGGUGAAUCUGCGAAUUCUGCUGUAUAUCUC, the self-cleavage was found to be 0.23.

As to UAACAGGGGGCCACAGCAGAAGCGUUCUCGUAGCAGCCCCUGUCAGAUUCUGGUGAAUCUGCGAAUUCUGCUGUAUAUCUC, the self-cleavage was determined as 0.19.

As for UAACAGGGGGCCACAGCAGAAGCGUUCACGUAGCAGCCCCUGUCAGAUUCUGGUGAAUCUGCGAAUUCUGCUAUAUAUCUC, the self-cleavage amounted to 0.49.

Consider UAACAGGGGGCCACAGCAGAAGCGUUCACGUCGCAGCCCCUUUCAGAUUCUGGUGAAUCUGCGAAUUCUGCUGUACAUCUC, for which the self-cleavage stood at 0.93.
